# From the supplement of paper PMC9233669
# Fewer inactive variants are shown than the library holds.
# What was measured:
# biotinyl-Ile-oxazolone = assay: self-aminoacylation, catalytic enhancement (BIO) (fold over background); higher = more active; k-Seq, kA / k0A0; sequences stand for … in GGGAAUGGAUCCACAUCUACGAAUUC…UUCACUGCAGACUUGACGAAGCUG
# In short: (§1)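 Mutagenized RNA pools (0.43 μM; 21-nt variable region) were treated with 2–1250 μM of each biotinyl-aminoacyl-oxazolone. Conditions were 50 μL HEPES/NaCl/KCl/MgCl2/CaCl2 buffer, 5% acetonitrile, pH 6.9–7.0, room temperature, 90 minutes. Catalytic enhancement, the median kA relative to the uncatalyzed rate, was derived from streptavidin capture, qPCR and Illumina sequencing.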
# biotinyl-Leu-oxazolone = assay: self-aminoacylation, catalytic enhancement (BLO) (fold over background); higher = more active; k-Seq, kA / k0A0; sequences stand for … in GGGAAUGGAUCCACAUCUACGAAUUC…UUCACUGCAGACUUGACGAAGCUG
# In short: as §1
# biotinyl-Phe-oxazolone = assay: self-aminoacylation, catalytic enhancement (BFO) (fold over background); higher = more active; k-Seq, kA / k0A0; sequences stand for … in GGGAAUGGAUCCACAUCUACGAAUUC…UUCACUGCAGACUUGACGAAGCUG
# In short: as §1
# biotinyl-Val-oxazolone = assay: self-aminoacylation, catalytic enhancement (BVO) (fold over background); higher = more active; k-Seq, kA / k0A0; sequences stand for … in GGGAAUGGAUCCACAUCUACGAAUUC…UUCACUGCAGACUUGACGAAGCUG
# In short: as §1
# biotinyl-Trp-oxazolone = assay: self-aminoacylation, catalytic enhancement (BWO) (fold over background); higher = more active; k-Seq, kA / k0A0; sequences stand for … in GGGAAUGGAUCCACAUCUACGAAUUC…UUCACUGCAGACUUGACGAAGCUG
# In short: as §1
# biotinyl-Met-oxazolone = assay: self-aminoacylation, catalytic enhancement (BMO) (fold over background); higher = more active; k-Seq, kA / k0A0; sequences stand for … in GGGAAUGGAUCCACAUCUACGAAUUC…UUCACUGCAGACUUGACGAAGCUG
# In short: as §1
Sequence,self-aminoacylation (biotinyl-Ile-oxazolone),self-aminoacylation (biotinyl-Leu-oxazolone),self-aminoacylation (biotinyl-Phe-oxazolone),self-aminoacylation (biotinyl-Val-oxazolone),self-aminoacylation (biotinyl-Trp-oxazolone),self-aminoacylation (biotinyl-Met-oxazolone)
UUUACCCUGGUCAUCGGGUGA [Fam2.1 aminoacylation ribozyme variant],15.2,37.2,221,16.7,40.3,37.3
UUUACCCUGGUGAUCGAGUGA [Fam2.1 aminoacylation ribozyme variant],3.39,6.55,28.6,3.51,7.87,6.47
UUUAGCCUGGUCAUCGAGUGA [Fam2.1 aminoacylation ribozyme variant],4.42,5.82,21.9,4.28,7,5.59
UUUAUCCUGGUCAUCGAGUGA [Fam2.1 aminoacylation ribozyme variant],5.25,9.68,10.2,4.7,11.3,8.6
UUUCAACUAGGUCAUCGGGUG [Fam2.2 aminoacylation ribozyme variant],3.58,5.6,35.7,3.67,5.22,5.1
UUUCACCUAAGUCAUCGGGUG [Fam2.2 aminoacylation ribozyme variant],5.08,9.35,51.6,5.74,8.11,7.38
UUUCACCUAGGUCAGCGGGUG [Fam2.2 aminoacylation ribozyme variant],3.75,5.53,24.2,3.92,5.12,4.92
UUUCACCUAGGUCAUAGGGUG [Fam2.2 aminoacylation ribozyme variant],1.41,1.38,1.69,1.3,1.23,1.28
UUUCACCUAGGUCAUCGCGUG [Fam2.2 aminoacylation ribozyme variant],6.66,11.4,84,6.67,9.42,9.16
UUUCACCUAGGUCAUCGGAUG [Fam2.2 aminoacylation ribozyme variant],1.1,0.998,0.842,1.36,1.12,0.898
UUUCACCUAGGUCAUGGGGUG [Fam2.2 aminoacylation ribozyme variant],3.19,4.07,29.1,2.96,4.25,3.8
UUUCACCUAUGUCAUCGGGUG [Fam2.2 aminoacylation ribozyme variant],3.35,5.1,31.4,3.56,5.28,4.6
